Molecular target: the molecule itself
Assay: SEC; purified MBP-ZP-N-6his on Sephacryl S-300 HR (FPLC) and Bio-Sil SEC-250-5 (HPLC) columns, ~300 kDa Mr cut-off; buffer F (10 mM Na-HEPES pH 8.0, 100 mM NaCl, 1 mM maltose, 1 mM NaN3); also with 10 mM DTT, and after pre-incubation with 10 mM EDTA

B1: MBP-ZP-N-6his fusion protein (PLAC1-homology region, ZP-N, of the ZP domain of mouse ZP3) (domain or fragment, UniProt P10761 42-143, looked up)
chain: VKVECLEAELVVTVSRDLFGTGKLVQPGDLTLGSEGCQPRVSVDTDVVRFNAQLHECSSRVQMTKDALVYSTFLLHDPRPVSGLSILRTNRVEVPIECRYPR
modifications: intramolecular disulfides Cys 46-Cys 139 and Cys 78-Cys 98 (ZP3 numbering)
notes: mouse ZP3 (zona pellucida sperm receptor), aa 42-143, the 102-amino acid ZP-N fragment; The assay buffer contained 1 mM maltose; also called recombinant ZP-N; ZP-N fragment; source: E. coli Origami B (DE3) (trxB gor), co-expressing ΔSSdsbC and TrxA(G33P, P34Y); purified (Ni2+ HiTrap Chelating HP, amylose resin, Mono Q); not shown: His6 (LEH6), C-terminal, kept
Does B1 bind?
Result: binds

From PMC1479692, “The PLAC1-homology region of the ZP domain is sufficient for protein polymerisation” (BMC Biochemistry, 2006)
